Reference: EP4613276A2 (Actym Therapeutics, Inc., dated 2025)

Legend:
[1] = target: CD3 on Jurkat-Lucia™ NFAT cells (Homo sapiens (Human)) (UniProt P07766); assay: flow cytometry on Jurkat-Lucia NFAT cells, concentrated supernatant, BiTE detected with anti-FLAG-APC (anti-FLAG-APC only: 1519)
[2] = target: CD3 on Jurkat-Lucia™ NFAT cells (Homo sapiens (Human)) (UniProt P07766); assay: flow cytometry on Jurkat-Lucia NFAT cells, BiTE detected with anti-FLAG-APC (anti-FLAG-APC only: 1519)
[3] = target: CD3 on Jurkat-Lucia™ NFAT cells (Homo sapiens (Human)) (UniProt P07766); assay: cell-based or functional assay
CD19 on Raji cells [4] = target: CD19 on Raji cells (UniProt P15391); assay: flow cytometry on Raji cells, BiTE detected with anti-FLAG-APC (anti-FLAG-APC only: 1439)
CD19 on Raji cells [5] = target: CD19 on Raji cells (UniProt P15391); assay: flow cytometry on Raji cells, concentrated supernatant, BiTE detected with anti-FLAG-APC (anti-FLAG-APC only: 1439)
[6] = target: recombinant murine CTLA-4-human IgG1 Fc chimera (R&D Systems) (mouse; human) (UniProt P09793); assay: competitive ELISA: HEK293T supernatant mixed with 10 ng/ml murine CTLA-4-human IgG1 Fc, on coated mouse CD86 (competitor); anti-human IgG1-HRP detection
[7] = target: recombinant murine CTLA-4-human IgG1 Fc chimera (R&D Systems) (mouse; human) (UniProt P09793); assay: competitive ELISA: HEK293T supernatant mixed with 10 ng/ml murine CTLA-4-human IgG1 Fc, on coated mouse CD80 (competitor); anti-human IgG1-HRP detection
[8] = target: mouse TGF-β1 (R&D Systems) (mouse) (UniProt P04202); assay: direct ELISA with mouse TGF-β1 on concentrated HEK293T supernatant (media control 0.041 ± 0.002)
[9] = target: mouse TGF-β1 (R&D Systems) (mouse) (UniProt P04202); assay: direct ELISA with mouse TGF-β1 on HEK293T supernatant (media control 0.041 ± 0.002)
[10] = target: T1, recombinant murine CTLA-4-human IgG1 Fc chimera (R&D Systems) (mouse; human, UniProt P09793 36-162; P01857 100-330 = IgG part, limits assumed); assay: direct ELISA of transfected HEK293T supernatant on mouse CTLA-4-Fc; the grade is printed as the payload's expression level
T1 construct: Bought reagent; also called mouse CTLA-4-Fc

Chain of CD3 on Jurkat-Lucia™ NFAT cells (Homo sapiens (Human)) (P07766 23-207 limits assumed, form in doubt, chain 1 of 3): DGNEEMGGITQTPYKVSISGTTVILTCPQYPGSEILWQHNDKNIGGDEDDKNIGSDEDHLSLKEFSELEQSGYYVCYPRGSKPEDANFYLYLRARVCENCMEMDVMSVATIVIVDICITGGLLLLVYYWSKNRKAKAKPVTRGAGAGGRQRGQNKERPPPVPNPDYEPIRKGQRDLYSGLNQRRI
Chain of CD3 on Jurkat-Lucia™ NFAT cells (Homo sapiens (Human)) (delta, as listed by the source limits assumed, form in doubt, chain 2 of 3): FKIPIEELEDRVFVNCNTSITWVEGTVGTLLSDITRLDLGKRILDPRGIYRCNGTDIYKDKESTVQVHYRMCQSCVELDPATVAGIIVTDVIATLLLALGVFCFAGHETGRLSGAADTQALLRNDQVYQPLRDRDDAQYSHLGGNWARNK
Chain of CD3 on Jurkat-Lucia™ NFAT cells (Homo sapiens (Human)) (gamma, as listed by the source limits assumed, form in doubt, chain 3 of 3): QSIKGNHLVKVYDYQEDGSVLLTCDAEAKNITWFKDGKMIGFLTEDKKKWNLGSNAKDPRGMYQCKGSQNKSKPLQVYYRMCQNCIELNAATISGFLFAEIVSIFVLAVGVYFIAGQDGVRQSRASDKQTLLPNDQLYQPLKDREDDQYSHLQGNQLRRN
Chain of mouse TGF-β1 (R&D Systems) (mouse) (P04202 279-390 limits assumed): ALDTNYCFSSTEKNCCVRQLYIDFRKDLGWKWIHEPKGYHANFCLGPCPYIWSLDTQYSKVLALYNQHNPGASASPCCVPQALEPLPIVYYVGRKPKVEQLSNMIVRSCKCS
Chain of CD19 on Raji cells (P15391 20-556 limits assumed): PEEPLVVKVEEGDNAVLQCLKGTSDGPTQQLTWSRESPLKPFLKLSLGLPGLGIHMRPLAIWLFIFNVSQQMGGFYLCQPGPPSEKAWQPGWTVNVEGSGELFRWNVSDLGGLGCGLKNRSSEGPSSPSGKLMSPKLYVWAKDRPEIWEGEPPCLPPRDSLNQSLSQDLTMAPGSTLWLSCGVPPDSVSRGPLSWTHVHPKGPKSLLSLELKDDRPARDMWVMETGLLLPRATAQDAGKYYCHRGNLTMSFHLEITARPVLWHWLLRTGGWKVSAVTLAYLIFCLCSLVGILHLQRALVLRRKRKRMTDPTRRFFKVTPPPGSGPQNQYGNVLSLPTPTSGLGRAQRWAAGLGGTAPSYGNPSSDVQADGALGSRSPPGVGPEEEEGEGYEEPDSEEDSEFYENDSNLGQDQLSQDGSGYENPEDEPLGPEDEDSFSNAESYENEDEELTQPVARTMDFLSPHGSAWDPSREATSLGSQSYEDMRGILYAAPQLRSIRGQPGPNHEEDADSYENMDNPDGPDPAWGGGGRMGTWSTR

## CD3xCD19 bispecific T-cell engager (BiTE®), containing a FLAG tag and a His tag (bispecific antibody)
[1]
  Mean Fluorescence Intensity (MFI) of APC+ Cells: 14100 MFI
[2]
  Mean Fluorescence Intensity (MFI) of APC+ Cells: 4580 MFI
[3]
  Luminescence (NFAT reporter), 1 Raji: 1 Jurkat, 6 hour time point, CD3xCD19 BiTE®: 2060 Luminescence
  Luminescence (NFAT reporter), 1 Raji: 1 Jurkat, 6 hour time point, concentrated CD3xCD19 BiTE®: 4340 Luminescence
  Luminescence (NFAT reporter), 1 Raji: 1 Jurkat, 24 hour time point, CD3xCD19 BiTE®: 6020 Luminescence
  Luminescence (NFAT reporter), 1 Raji: 1 Jurkat, 24 hour time point, concentrated CD3xCD19 BiTE®: 18600 Luminescence
  Luminescence (NFAT reporter), 2 Raji: 1 Jurkat, 6 hour time point, CD3xCD19 BiTE®: 3440 Luminescence
  Luminescence (NFAT reporter), 2 Raji: 1 Jurkat, 6 hour time point, concentrated CD3xCD19 BiTE®: 12100 Luminescence
  Luminescence (NFAT reporter), 2 Raji: 1 Jurkat, 24 hour time point, CD3xCD19 BiTE®: 11300 Luminescence
  Luminescence (NFAT reporter), 2 Raji: 1 Jurkat, 24 hour time point, concentrated CD3xCD19 BiTE®: 47200 Luminescence
CD19 on Raji cells [4]
  Mean Fluorescence Intensity (MFI) of APC+ Cells: 7410 MFI
CD19 on Raji cells [5]
  Mean Fluorescence Intensity (MFI) of APC+ Cells: 16000 MFI

## anti-CTLA-4 scFv (ipilimumab scFv antibody fragment)
[6]
  % CD86 Blockade Activity: 32.5%
[7]
  % CD80 Blockade Activity: 7%

## Soluble mouse TGFβ receptor II-Fc (Fc fusion)
[8]
  Absorbance at 450 nm (absorbance at 450 nm): 1.52
[9]
  Absorbance at 450 nm (absorbance at 450 nm): 1.51

B1: anti-murine CTLA-4 scFv (derived from the 9D9 clone) (scFv)
scFv: DIVMTQTTLSLPVSLGDQASISCRSSQSIVHSNGNTYLEWYLQKPGQSPKLLIYKVSNRFSGVPDRFSGSGSGTDFTLKISRVEAEDLGVYYCFQGSHVPYTFGGGTKLEIKGGGGSGGGGSGGGGSEAKLQESGPVLVKPGASVKMSCKASGYTFTDYYMNWVKQSHGKSLEWIGVINPYNGDTSYNQKFKGKATLTVDKSSSTAYMELNSLTSEDSAVYYCARYYGSWFAYWGQGTLVTVSS
notes: Tested as HEK293T supernatant; also called anti-muCTLA-4 scFv
[10]
  binding result: binds

B2: anti-murine CTLA-4 scFv-Fc (derived from the 9D9 clone, mouse IgG2a Fc) (Fc fusion)
chain: DIVMTQTTLSLPVSLGDQASISCRSSQSIVHSNGNTYLEWYLQKPGQSPKLLIYKVSNRFSGVPDRFSGSGSGTDFTLKISRVEAEDLGVYYCFQGSHVPYTFGGGTKLEIKGGGGSGGGGSGGGGSEAKLQESGPVLVKPGASVKMSCKASGYTFTDYYMNWVKQSHGKSLEWIGVINPYNGDTSYNQKFKGKATLTVDKSSSTAYMELNSLTSEDSAVYYCARYYGSWFAYWGQGTLVTVSSEPRGPTIKPCPPCKCPAPNLLGGPSVFIFPPKIKDVLMISLSPIVTCVVVDVSEDDPDVQISWFVNNVEVHTAQTQTHREDYNSTLRVVSALPIQHQDWMSGKEFKCKVNNKDLPAPIERTISKPKGSVRAPQVYVLPPPEEEMTKKQVTLTCMVTDFMPEDIYVEWTNNGKTELNYKNTEPVLDSDGSYFMYSKLRVEKKNWVERNSYSCSVVHEGLHNHHTTKSFSRTPGK
notes: Tested as HEK293T supernatant; also called anti-muCTLA-4 scFv-Fc
[10]
  binding result: binds
